The values below come from article PMC7190724, “Improved GPCR ligands from nanobody tethering” (Nature Communications, 2020).

Test [1] deals with each of the PTHR1 receptor constructs that retained the ECD. As to the kind of experiment: flow cytometry on cells; dose response of staining with VHH-Alexafluor647 (median fluorescent intensity); cells in PBS, 1 h on ice; curves without plateau constrained to the plateau seen with other VHHs. For orientation: A flow cytometer gives signals particle by particle.
The target of the next test is PTHR1_(YFPΔECD). The test is described as above.

Where only a bound is given, the exact number is not on record here.

As a reminder, the EC50 is the concentration that produces a half-maximal response.

B1: VHH_(PTHR) (VHH)
VHH: EVQLVESGGGLVQAGGSLRLSCAASGNIFANNIMGWYRQPPGKEREFVAHVSHDGDSMYAVSVKGRFAISRKDATNLYLQMNSLKPEDTAIYFCRLLNIPTQGRMEGFWGQGTQVTVSS
On to B1, for which the EC50 in test [1] lay in the range of 100 to 200 nM.

B2: VHHGFP (VHH)
VHH: QVQLQESGGALVQPGGSLRLSCAASGFPVNRYSMRWYRQAPGKEREWVAGMSSAGDRSSYEDSVKGRFTISRDDARNTVYLQMNSLKPEDTAVYYCNVNVGFEYWGQGTQVTVSS
For the molecule B2, the EC50 in the test with PTHR1_(YFPΔECD) is under 10 nM.
